Measurements published in publication PMC11511291, “Structures of the Varicella Zoster Virus Glycoprotein E and Epitope Mapping of Vaccine-Elicited Antibodies” (Vaccines, 2024).

B1: Fab 1E8 (recombinant Fab of human anti-gE antibody 1E8, elicited by ZVL vaccination) (Fab, V domains shown)
VH: QVQLQESGPGLVRPSQTLSLTCTVSGGSITSGSFYWSWVRQSAGKGLEWIGRIFKTGSTTYKPSLKSRVTMSVDTSKNQFSLKLSSVTATDTAVYFCARAPFYNDFSGYSYYFDYWGQGTLVTVSS
VL: QSVLTQPPSASGTPGQRVTISCSGSSSDIGPNTVHWYRQVPGTAPTLLIYSDNQRPSGVPARFSGSRSGTSASLAISGLQSEDEAIYYCAAWDDSLNPLYVFGTGTKVTVL
notes: source: HEK293 Expi cells, transient, purified (StrepTrap HP, SEC)
B2: Fab 1A2 (recombinant Fab of human anti-gE antibody 1A2, elicited by ZVL vaccination) (Fab, V domains shown)
VH: EVQLVQSGAEMKKPGASVKVSCKTSGYVFNEYYIHWVRQAPGQGLEWLGRINPNSGDANYAPKFQGRVTLTRDTSIRTYFMELNRLRSDDTAVYYCARIMYFEYDSWSDYWGQGTLVTVSS
VL: DIQMTQSPSSLSASVGDRVTITCRASQSIRSNLNWYQQKPGKAPNVLIYATSSLQSGVPSRFSGSGSGTDFTLTIRSLQPEDFATYYCQQSYSLPWTFGQGTKVEIK
notes: as for B1
B3: Fab 1E3 (recombinant Fab of human anti-gE antibody 1E3, elicited by ZVL vaccination) (Fab, V domains shown)
VH: QVQLQESGPGLVKPSQTLSLTCTVSGGSISSNDYYWTWIRQSPGKGLEWIGFISYNGDTYYNPSLKRRGTISVDTSKIQFSLRLSSVTAADTAVYYCARVRTSSTTSYYFDYWGQGTLVTVSS
VL: DIQMTQSPSSLSASVGDRVTITCRASQGIRNYLNWYQQKPGKAPMLLIYGASSLQNGVPSRFSGSGSGTEFTLTISSLQPEDFATYYCQQSYRTLTFGPGTKVDIK
notes: also called 1E3 Fab; source: HEK293 Expi cells, transient, purified (StrepTrap HP, SEC)
B4: Fab 5A2 (recombinant Fab of human anti-gE antibody 5A2, elicited by ZVL vaccination) (Fab, V domains shown)
VH: QVQLQESGPGLVKPSETLSLTCIVSGGSISRYYWSWIRQPPGRGLEWIGNIYYTGTTNYNPSLQSRVTISLDTSKNQFSLRLTSVTAADTAVYYCARIGGVSFGERPIDYWGQGTLVTVSS
VL: DIQMTQSPSSLSASVGDRVTITCRASQTISTYLNWYQQKPGKAPKLLIYAASTLQSGVPSRFSGSGSGTDFTLTITSLQPEDFAAYYCQQSYSIPLTFGGGTKVEIK
notes: also called 5A2 Fab; source: HEK293 Expi cells, transient, purified (StrepTrap HP, SEC)

Assays:
[1] = molecular target: T1, VZV glycoprotein E, full-length gE ectodomain (gE_FL) (Varicella-zoster virus; strain not …, UniProt P09259); test: SEC; HPLC-SEC epitope binning: VZV gE mixed with primary Fab at mass ratio 1:3 for 10 min at room temperature, then with secondary Fab at the same ratio; Superdex 200 Increase 3.2/300; details: both partners purified
T1 construct: Varicella zoster virus glycoprotein E (gE), 'full-length gE ectodomain', includes the disordered N-terminal region (residues 1-115); The construct used in the HPLC-SEC binning is only called 'VZV gE'; also called FL gE; VZV gE; source: Expi293 cells, transfected, purified from culture supernatant (HisTrap, Superdex 200 SEC)
T1 sequence (P09259 whole entry, looked up, the tested form may be a part): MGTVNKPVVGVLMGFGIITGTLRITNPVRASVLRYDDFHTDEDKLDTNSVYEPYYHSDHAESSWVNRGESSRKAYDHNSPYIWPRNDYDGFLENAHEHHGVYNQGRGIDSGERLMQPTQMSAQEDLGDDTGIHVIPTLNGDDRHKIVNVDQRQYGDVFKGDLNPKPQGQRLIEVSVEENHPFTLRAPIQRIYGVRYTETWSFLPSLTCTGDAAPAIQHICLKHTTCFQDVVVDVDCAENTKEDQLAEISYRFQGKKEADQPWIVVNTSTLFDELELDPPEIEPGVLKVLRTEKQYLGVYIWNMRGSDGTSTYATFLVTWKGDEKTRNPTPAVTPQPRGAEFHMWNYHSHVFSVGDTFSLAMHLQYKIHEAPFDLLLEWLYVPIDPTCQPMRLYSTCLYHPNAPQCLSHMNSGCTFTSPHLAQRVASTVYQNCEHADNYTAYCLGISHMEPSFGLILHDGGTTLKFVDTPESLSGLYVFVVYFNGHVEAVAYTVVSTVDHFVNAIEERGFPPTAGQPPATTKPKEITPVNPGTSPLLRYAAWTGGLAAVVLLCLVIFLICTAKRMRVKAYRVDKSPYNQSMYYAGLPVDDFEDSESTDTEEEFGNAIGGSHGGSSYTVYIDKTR

[2] = molecular target: T1, VZV glycoprotein E, full-length gE …; test: BLI; Octet Red96; Fabs loaded onto FAB2G biosensors (0.5 to 1.0 nm), gE as analyte at 25 nM to 1.6 nM; 1 x PBS with 1% BSA; details: both partners purified

| Binder | binding result [1] | binding result [2] |
| --- | --- | --- |
| B1 | binds | – |
| B2 | – | binds |
| B3 | – | binds |
| B4 | – | binds |
